Experimental data published in US8058396B2, “Cystatin C as an antagonist of TGF-β and methods related thereto” (National Jewish Health, priority 2003, dated 2011).

Tests used:
HT1080 cells = test: DNA synthesis in HT1080 cells; type: cell-based, human; settings: overexpression in HT1080 cells; data not shown
3T3-L1 cells [1] = test: DNA synthesis in 3T3-L1 cells; type: cell-based, murine; settings: data not shown
3T3-L1 cells [2] = test: Migration of 3T3-L1 cells to fibronectin; type: cell-based, murine; settings: data not shown
TGF-β signaling = test: p3TP-luciferase reporter gene assay in 3T3-L1 cells; type: cell-based, murine; settings: expression in 3T3-L1 cells; TGF-β1 0-5 ng/ml; compared to control cells
Protocol: Analysis of luciferase activity driven by the synthetic p3TP reporter ((26); generously provided by Dr. Joan Massague, Sloan Kettering) was performed as described previously (42). Briefly, control, CystC-, or Δ14CystC-expressing 3T3-L1 or HT1080 cells were cultured onto 24-well plates at a density of 45,000 cells/well and allowed to adhere overnight. The cells were transiently transfected the following morning by overnight exposure to LT1 liposomes (Mirus) containing 300 ng/well p3TP-luciferase and 100 ng/well of pCMV-β-gal. Afterward, the cells were washed twice with PBS and stimulated overnight in serum-free media with increasing concentrations of TGF-β1 as indicated. The following morning, luciferase and β-gal activities contained in detergent-solubilized cell extracts were determined.
In some experiments, the effects of recombinant CystC and D14CystC on p3TP-luciferase activity 3T3-L1 cells was determined. […] All subsequent procedures were performed as described above.
The present inventor's findings that TGF-β signaling was inhibited by CystC (FIGS. 1 and 2) independent of its actions on cathepsin B lead them to hypothesize CystC as a general antagonist of TGF-β signaling. To test this hypothesis, changes in p3TP-driven luciferase activity were monitored in control, CystC-, Δ14CystC-expressing cells before and after their stimulation with TGF-β. Briefly, GFP-, CystC-, or Δ14CystC-expressing 3T3-L1 cells were transiently transfected with p3TP-luciferase and pCMV-β-gal, and subsequently stimulated with increasing concentrations of TGF-β1 (0-5 ng/ml) as indicated in FIG. 3A. Afterward, luciferase and β-gal activities contained in detergent-solubilized cell extracts were measured. […] Data are the mean (±SE) luciferase activities of four independent experiments normalized to untreated GFP-expressing cells.
The transfectants were then stimulated with TGF-β1 (5 ng/ml) in the absence or presence of recombinant (10 mg/ml) GST, GST-CystC, or GST-D14CystC as indicated in FIG. 3B. […]

TGF-β1 = TGF-β1 (Homo sapiens, UniProt P01137); test: Co-immunoprecipitation and affinity pull-down of CystC with TGF-β1; type: binding; settings: data not shown
TGF-β1, sequence (P01137 279-390 limits assumed, species assumed): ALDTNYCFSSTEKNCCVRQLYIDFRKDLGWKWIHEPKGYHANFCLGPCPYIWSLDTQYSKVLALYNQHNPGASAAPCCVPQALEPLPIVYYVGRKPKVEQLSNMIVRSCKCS

[3] = tested on: NMuMG mammary epithelial cells; test: TGF-β-mediated downregulation of E-cadherin in NMuMG cells; type: cell-based, murine; settings: overexpression in NMuMG cells; TGF-β1 5 ng/ml, 36 hours
Protocol: The ability of TGF-β to alter actin cytoskeletal architecture and E-cadherin expression was monitored essentially as described (Piek et al., 1999). Briefly, control-, CystC-, or Δ14CystC-expressing NMuMG cells were allowed to adhere overnight to glass coverslips in 24-well plates (50,000 cells/well). The cells were stimulated the following day with TGF-β1 (5 ng/ml) for 0-36 hours at 37° C. In some experiments, control NMuMG cells were stimulated with TGF-β1 in the absence or presence of 10 μg/ml of recombinant GST, GST-CystC, or GST-Δ14CystC. Upon completion of agonist stimulation, the cells were washed in ice-cold PBS and immediately fixed in 3.7% formaldehyde. After extensive washing in PBS, the cells were blocked in PBS supplemented with 1.5% FBS, followed by incubation with rhodamine-phalloidin (0.25 μM). […]
The ability of TGF-β to alter E-cadherin expression also was monitored by immunoprecipitating E-cadherin from Buffer H/1% Triton X-100-solubilized (Schiemann et al., 2003) NMuMG whole cell extracts, followed by immunoblotting with anti-E-cadherin antibodies (1:1000 dilution).
To test this hypothesis, the inventor first examined whether CystC and a CystC mutant impaired in its ability to inhibit cathepsin protease activity (i.e., Δ14CystC) could antagonize TGF-β stimulation of EMT in MECs. […] TGF-β stimulation of EMT is studied routinely in murine NMuMG MECs, which readily undergo EMT when treated with TGF-β (Piek et al., 1999; Miettinen et al., 1994; Gotzmann et al., 2004). […] E-cadherin expression was monitored by indirect immunofluorescence with anti-E-cadherin antibodies.
In another experiment, NMuMG cells were infected with ecotropic retrovirus encoding either GFP (i.e., control), CystC, or Δ14CystC, and subsequently were isolated by FACS-sorting for GFP expression to yield stable polyclonal populations of control, CystC, and Δ14CystC-expressing cells. The expression and secretion of recombinant CystC proteins by infected NMuMG and NRK cells was monitored by immunoblotting conditioned-media with anti-CystC antibodies. […]

NMuMG cells = test: NMuMG cell invasion through Matrigel matrices; type: cell-based, murine; settings: expression in NMuMG cells, 48 hours, p<0.05; for TGF-β1-enhanced NMuMG cell invasion: TGF-β1 5 ng/ml
Protocol: In another experiment, NMuMG cells were infected with ecotropic retrovirus encoding either GFP (i.e., control), CystC, or Δ14CystC, and subsequently were isolated by FACS-sorting for GFP expression to yield stable polyclonal populations of control, CystC, and Δ14CystC-expressing cells. The expression and secretion of recombinant CystC proteins by infected NMuMG and NRK cells was monitored by immunoblotting conditioned-media with anti-CystC antibodies. The same cells were incubated in the absence or presence of TGF-β1 (5 ng/ml) for 8 hours, whereupon alterations in actin cytoskeletal architecture was visualized by direct rhodamine-phalloidin immunofluorescence. Next, the control, CystC-, and Δ14CystC-expressing NMuMG cells were incubated in the absence or presence of TGF-β1 (5 ng/ml) for 36 hours, whereupon E-cadherin expression was monitored by immunoblotting with anti-E-Cadherin antibodies. Finally, control, CystC-, and Δ14CystC-expressing NMuMG cells were allowed to invade through Matrigel matrices in the absence or presence of TGF-β1 (5 ng/ml) for 48 hours.

cathepsin B = cathepsin B (Homo sapiens, UniProt P07858); settings: mutant lacks the cysteine inhibitor motif; reference 23; cited from earlier work

Row | Molecule | synthesis of DNA in HT1080 cells (HT1080 cells) | 3T3-L1 cell DNA synthesis (3T3-L1 cells [1]) | 3T3-L1 cell migration to fibronectin (3T3-L1 cells [2]) | TGF-β-stimulated luciferase activity (p3TP) (TGF-β signaling) | direct physical interaction with TGF-β1 (TGF-β1) | TGF-β-mediated downregulation of E-cadherin [3] | tonic NMuMG cell invasion (NMuMG cells) | TGF-β1-enhanced NMuMG cell invasion (NMuMG cells) | inactivation of cathepsin B (cathepsin B)
1 | CystC: full-length human Cystatin C (SEQ ID NO:2), C-terminally Myc- and (His)6-tagged, retrovirally expressed and secreted by the cells (protein, listed as Homo sapiens, C-terminal Myc and His6 tags) MAGPLRAPLLLLAILAVALAVSPAAGSSPGKPPRLVGGPMDASVEEEGVRRALDFAVGEYNKASNDMYHSRALQVVRARKQIVAGVNYFLDVELGRTTCTKTQPNLDNCPFHDQPHLKRKAFCSFQIYAVPWQGTMTLSKSTCQDA | failed to effect | failed to effect | failed to effect | significantly reduced | failed to demonstrate a direct physical interaction | antagonized | significantly inhibited | inhibited significantly | 
2 | Δ14CystC: human CystC with deletion of positions 80 to 93 (conserved cysteine proteinase inhibitor motif), retrovirally expressed and secreted (protein, left off: small tags and cut ends) MAGPLRAPLLLLAILAVALAVSPAAGSSPGKPPRLVGGPMDASVEEEGVRRALDFAVGEYNKASNDMYHSRALQVVRARLGRTTCTKTQPNLDNCPFHDQPHLKRKAFCSFQIYAVPWQGTMTLSKSTCQDA | failed to effect |  |  | significantly reduced |  | antagonized |  | inhibited significantly | unable to inactivate
